# B1: ranpirnase (protein, UniProt P22069 1-104, looked up)
# Protein P-30: QDWLTFQKKHITNTRDVDCDNIMSTNLFHCKDKNTFIYSRPEPVKAICKGIIASKNVLTTSEFYLSDCNVTSRPCKYKLKKSTNKFCVTCENQAPVHFVGVGSC
# notes: An RNase, disclosed and claimed in U.S. Pat. No. 5,559,212
# Experiments:
# roseolovirus-6A = experiment: Antiviral activity against roseolovirus-6A in HSB-2 cells, viral DNA by real time PCR; format: cell-based, human; details: SI greater than 1 = active, FIGS. 1 and 2
# Description: (§1) To evaluate the activity of the three tested RNases against human herpesviridae infections, the following quantitative PCR assay was used:
# (§2) Solutions of the tested RNases were prepared in cell culture medium without use of dimethyl sulfoxide (“DMSO”). DMSO is unnecessary because the tested RNases are water-soluble.
# Antiviral activity against roseolovirus-6B was evaluated in Molt-3 cells. The tested RNases were diluted using methods used for the CPE-inhibition assay in RPMI 1640 medium (Roswell Park Memorial Institute) supplemented with 10% FBS, L-glutamine, penicillin and gentamicin. 2×10^4 Molt-3 cells were added to each well, and infected cells were added to achieve the desired multiplicity of infection and incubated at 37° C. for 4 days. The accumulation of viral DNA was determined by real time PCR assays. Antiviral activity against roseolovirus-6A was evaluated by similar procedures, but using HSB-2 cells.
# (§3) For all the assays, cytotoxicity was evaluated in the same cell line used to evaluate antiviral activity and was assessed by CellTiter-Glo assays.
# human cytomegalovirus = experiment: Antiviral activity against human cytomegalovirus, CPE-inhibition assay in primary HFF cells with real time PCR readout; format: cell-based; details: primary human foreskin fibroblast (HFF) cells; SI greater than 1 = active; FIGS. 1 and 2
# Description: as §1, §2
# Antiviral activity against herpes simplex virus-1, herpes simplex virus-2, and human cytomegalovirus was evaluated by cytopathic effect inhibition (“CPE-inhibition”) assays in primary human foreskin fibroblast (HFF) cells. Primary HFF cells were counted and 2.5×10^4 cells per well were seeded into 96-well plates in 100 it of minimal essential medium supplemented with 10% fetal bovine serum (“FBS”). The cells were then incubated for 24 hours at 37° C. in a 5% CO2 humidified incubator. Solutions of the tested RNases were added to triplicate wells to yield a final concentration of 10 μM, and diluted to yield concentrations of 2, 0.4, 0.08, 0.016, and 0.0032 μM. The plates were then incubated for 1 h and 100 μl of a virus suspension was added. […] Total DNA from the cultures was harvested and viral genome copy number was determined by real time PCR assays.
# as §3
molecule,measurement,setting,value
B1,activity against roseolovirus-6A (judged by SI = CC50/EC50),roseolovirus-6A,entirely inactive
same,activity against human cytomegalovirus (judged by SI = CC50/EC50),human cytomegalovirus,extraordinarily active
